One data set relates to Aβ (Monomer, Aggregate). The note with it: A = aggregate, M = monomer; ref [9]–[19],[54] as given per antibody in column Ref. of Table 1; cited from earlier work.
In another data set the target is Aβ1-40. As to the kind of experiment: ELISA, binding of Fab fragments to biotinylated Aβ1-40 on streptavidin-coated plates. The note with it: papain-generated Fab fragments, Aβ1-40-Lys-Biotin 1 μg/mL on streptavidin plates, average of two measurements. For orientation: ELISA stands for enzyme-linked immunosorbent assay.
In the next data set the target is fibrillar Aβ1-42. As to the kind of experiment: ELISA, binding of antibodies to immobilized Aβ1-42 fibrils. The note with it: mIgG2a chimeric antibodies on fibrillar Aβ1-42 coated at 2.5 μg/mL, 2 h room temperature, average of two measurements, read-out: mAb binding aggregated Aβ1-42 (EC50).
Another data set deals with Aβ1-40 monomer. As to the kind of experiment: ELISA-based competition assay: antibody binding to immobilized oligomeric Aβ1-42 competed by free monomeric Aβ1-40. To be noted: immobilized oligomeric Aβ1-42 2.5 μg/mL, antibody 0.4 nM, 2 h room temperature, mean of duplicate wells. The protocol: Finally, we determined the binding of Fab fragments of the antibodies to Aβ1-40 (Fig. 1d).
To measure competition by soluble monomeric Aβ1-40, plates were coated with Aβ1-42 peptide at 2.5 μg/mL as above. In this case the oligomeric preparation of […] was used as the substrate to ensure sufficient signal with each test antibody. […] The plates were incubated at room temperature for 2 h, and bound antibody was detected with an HRP-conjugated goat anti-mouse polyclonal secondary antibody followed by measurement of HRP activity using 1-Step TMB substrate as described above. All data points are the mean of duplicate wells.

The next data set relates to monomeric Aβ1-40-biotin. As to the kind of experiment: SPR, Fab fragments binding to surface-captured Aβ1-40-biotin. The note with it: SPR Biacore T200. The method, then:
Figure 2 Surface plasmon resonance analysis of the binding of anti-Aβ antibody Fab fragments to Aβ1-40-biotin immobilized on a biotin-capture sensor chip surface. […] Fabs were injected over an Aβ1-40-biotin coated sensor chip for 2 min in (a) and 3 min in (b–d), where the rising response describes the approach to steady state binding and beyond which the response drops due to dissociation of the Fabs.
Binding kinetics and affinity measurements were performed with a Biacore T200 instrument (GE Healthcare). Aβ1-40-biotin was captured on a Biotin CAPture chip (GE Healthcare) at 3–7 pg/mm^2 from solutions at 10–20 ng/mL in Biacore buffer (10 mM HEPES, pH 7.2, 150 mM NaCl, 3.4 mM EDTA, 0.05% BSA, 0.005% surfactant P20) using reagents and protocols provided by the manufacturer. […] Antibody Fab fragments were injected for 2-3 min at 30 μL/min and a range of concentrations in Biacore buffer, as indicated in the Fig. 2 legend, and the binding response relative to a reference sensor with no Aβ1-40-biotin was recorded. Data were analyzed with Biacore T200 Evaluation Software v3.0 using a 1:1 binding model.

Another data set deals with Aβ1-16 peptide. As to the kind of experiment: Microscale thermophoresis (MST). Format: binding. To be noted: MST in solution; 5-TAMRA-labeled Aβ1-16; PBS, Triton X-100; average of three replicates. (MST reads how a fluorescent partner responds to local heating, with and without ligand.)
A further data set concerns dimeric Aβ1-15 MAP. As to the kind of experiment: ELISA with multi-antigen peptides, dimer. The data set is classed as binding. The note with it: result in words. The method, then:
(§1) Aβ peptide binding to anti-Aβ antibodies measured by isothermal titration calorimetry (ITC). Titration of mAb with Aβ1-28 peptide. […]
(§2) mAb:Aβ ratio. The solid line is the fit to a two-site binding model (2 Aβ peptides binding to 1 mAb). The average KD values were calculated from […]
(§3) ELISA of binding of anti-Aβ antibodies to bivalent and tetravalent multi-antigen peptides Biotinylated Aβ1-15 multivalent multi-antigen peptides (MAPs) based on branched lysine residues were custom synthesized and purified (LifeTein). […]
(§4) goat anti-mouse IgG Fcγ fragment-specific antibody (Jackson ImmunoResearch) in Coating Buffer. The coated plates were washed, blocked as described in Methods, and incubated with serial dilutions of dimeric or tetrameric biotinylated Aβ1-15 MAP in Blocking Buffer at the indicated concent rations in […]
(§5) (1 picture or pasted object on this page, not shown here)
(§6) Figure S5. Binding of anti-Aβ antibodies to dimeric and tetrameric Aβ as assessed by ELISA. (a) Design of biotin-conjugated Aβ1-15 multivalent multi-antigen peptides (MAPs). Binding of anti-Aβ antibodies to MAPs with Aβ1-15x2 dimer (b) and Aβ1-15x4 tetramer (c).

Another data set relates to tetrameric Aβ1-15 MAP. As to the kind of experiment: ELISA with multi-antigen peptides, tetramer. The data set is classed as binding. To be noted: result in words. The method, then: as §1, §2, §3, §4, §5, §6
The test system of a further data set is Aβ1-40 fibrils. As to the kind of experiment: Negative-stain EM of fibrils with gold-conjugated antibodies. The data set is classed as binding. The note with it: fibril-associated 10-nm gold particles (≤10 nm to fibril) per μm^2; 100 images; ^chaducanumab higher. The method, then: Figure 3 Negative-stain electron microscopy of Aβ1-40 fibrils incubated with gold-conjugated anti-Aβ antibodies. […] 100 images were collected for each sample. A representative image for each data set is shown. Scale bars are 100 nm. (e) Labeling densities were calculated as the number of fibril-associated gold particles (distance of ≤10 nm to fibril) per 1 μm^2 for each image, with mean ± SD for each group. The differences in the gold-labeled antibodies binding to Aβ fibrils were tested with a one-way ANOVA.
Aβ1-40 and Aβ1-42 peptides (AnaSpec) were dissolved in 5 M guanidine-HCl, 50 mM Tris-HCl, pH 8.0 at a concentration of 1 mg/mL. For growth of the Aβ1-40 fibrils, the solution was dialyzed (dialysis tubes, 1 kDa cutoff, GE Healthcare) against buffer (100 mM Na2HPO4, pH 8, 0.01% NaN3) for 4–6 h, then sonicated and agitated based on protocols described by Petkova and colleagues. […]
A 5-μL aliquot of Aβ1-40 or Aβ1-42 fibril sample (1 mg/mL) was adsorbed for 1 min on a glow-discharged carbon-coated copper grid. […] All quantifications were done using the Visiopharm image analysis software. Gold-conjugated anti-Aβ antibodies and Aβ1-40 or Aβ1-42 fibrils were detected with a customized algorithm. […] The data were subjected to a D’Agostino & Pearson normality test, and P-values were subsequently calculated using a Kruskal-Wallis one-way analysis of variance (ANOVA).

The test system of another data set is Aβ1-42 fibrils. The data set is described as above. The data set is classed as binding. The note with it: fibril-associated gold particles per μm^2; 100 images; chaducanumab higher. The protocol:
Aβ1-40 and Aβ1-42 peptides (AnaSpec) were dissolved in 5 M guanidine-HCl, 50 mM Tris-HCl, pH 8.0 at a concentration of 1 mg/mL. For growth of the Aβ1-40 fibrils, the solution was dialyzed (dialysis tubes, 1 kDa cutoff, GE Healthcare) against buffer (100 mM Na2HPO4, pH 8, 0.01% NaN3) for 4–6 h, then sonicated and agitated based on protocols described by Petkova and colleagues. For Aβ1-42 fibrils, the dialysis buffer was supplemented with 100 mM NaCl and 100 μM ZnCl2 to decrease fibril polymorphism, as previously described. All Aβ fibrils were grown at 24 °C for 3 days. […]
A 5-μL aliquot of Aβ1-40 or Aβ1-42 fibril sample (1 mg/mL) was adsorbed for 1 min on a glow-discharged carbon-coated copper grid. […] All quantifications were done using the Visiopharm image analysis software. Gold-conjugated anti-Aβ antibodies and Aβ1-40 or Aβ1-42 fibrils were detected with a customized algorithm. […] The data were subjected to a D’Agostino & Pearson normality test, and P-values were subsequently calculated using a Kruskal-Wallis one-way analysis of variance (ANOVA). […]
100 images were collected for each sample. […] (e) Labeling densities were calculated as the number of fibril-associated gold particles per µm2 for each image with mean ± SD for each group, as described in Fig 3. Quantification of the number of gold particles that […]

The test system of a further data set is soluble Aβ1-28. As to the kind of experiment: SPR, soluble Aβ1-28 binding to surface-captured intact antibody. (SPR reads the build-up and loss of mass on a sensor chip optically.)
A further data set has as its system monomeric Aβ1-40. The note with it: read-out: mAb binding soluble Aβ1-40 (EC50); ELISA; monomeric biotinylated Aβ1-40 on captured antibody (5 μg/mL); average of two measurements.
The mark [1] stands for this setting: Fab binding to Aβ1-40-biotin captured at 3–7 pg/mm^2, 1:1 binding model.

Procedure for fibrillar Aβ1-42: For binding of antibodies to immobilized Aβ, 96-well microplates (Nunc Maxisorp; Thermo Fisher Scientific) were coated with 50 μL/well of fibrillar Aβ1-42 peptide at 2.5 μg/mL overnight at 4 °C in Coating Buffer (15 mM Na2CO3, 35 mM NaHCO3, pH 9.6). […] Plates were washed with Wash Buffer (PBS containing 0.05% Tween-20) and blocked for 1 h at room temperature with Blocking Buffer (PBS containing 1% BSA). Antibodies or Fabs were serially diluted to the indicated concentrations in Assay Buffer, and 50 μL/well were added to plates in duplicate wells and incubated for 2 h at room temperature. Plates were washed three times with Wash Buffer, and bound antibodies or Fabs were detected using a horseradish peroxidase (HRP)-conjugated goat anti-mouse polyclonal secondary antibody (Jackson ImmunoResearch), followed by measurement of captured HRP by incubation with 1-Step TMB substrate (Thermo Fisher Scientific) following the manufacturer’s instructions.
Procedure for soluble Aβ1-28: Analysis of A binding kinetics using surface plasmon resonance (SPR)
To identify if surface immobilization through C -terminal biotin affects the bi nding of antibodies targeting the N terminus, a separate experiment was performed, in which the binding of soluble Aβ1-28 to surface-captured antibody was measured (Fig. S1). This truncated form of A β was used to minimize aggregation and contains the full epitope for all antibodies tested (Table 1). Intact antibody was captured at 100 -600 RU on a CM5 chip prepared with mouse antibody capture reagent (GE Healthcare), and the binding response of Aβ1-28 was measured relative to a reference sensor with no anti -Aβ antibody. In this assay
Surface plasmon resonance analysis of A1-28 binding to anti-A antibodies immobilized on a muIgG -capture sensor chip surface.
corresponding fits to a 1:1 binding model (red curves).
up to 30 µM. Kinetics and affinity constants determined are listed in (e).

B1: BAN2401: anti-Aβ clinical candidate antibody, Ph2; mouse analog mAb158 (antibody, chains of the INN, looked up, V domains shown)
VH: EVQLVESGGGLVQPGGSLRLSCSASGFTFSSFGMHWVRQAPGKGLEWVAYISSGSSTIYYGDTVKGRFTISRDNAKNSLFLQMSSLRAEDTAVYYCAREGGYYYGRSYYTMDYWGQGTTVTVSS
VL: DVVMTQSPLSLPVTPGAPASISCRSSQSIVHSNGNTYLEWYLQKPGQSPKLLIYKVSNRFSGVPDRFSGSGSGTDFTLRISRVEAEDVGIYYCFQGSHVPPTFGPGTKLEIK
Turning to B1, the “Aβ selectivity (Monomer, Aggregate)” value in the data set on Aβ (Monomer, Aggregate) is given as “A ≫ M”.

B2: gantenerumab: anti-Aβ clinical candidate antibody, Ph3 (antibody, chains of the INN, looked up, V domains shown)
VH: QVELVESGGGLVQPGGSLRLSCAASGFTFSSYAMSWVRQAPGKGLEWVSAINASGTRTYYADSVKGRFTISRDNSKNTLYLQMNSLRAEDTAVYYCARGKGNTHKPYGYVRYFDVWGQGTLVTVSS
VL: DIVLTQSPATLSLSPGERATLSCRASQSVSSSYLAWYQQKPGQAPRLLIYGASSRATGVPARFSGSGSGTDFTLTISSLEPEDFATYYCLQIYNMPITFGQGTKVEIK
Usually EC50 stands for the concentration that produces a half-maximal response. B2 displayed an EC50 at Aβ1-40 of 5.9 nM.

B3: ^chgantenerumab: murine chimeric IgG2a/kappa analog with the variable domains of gantenerumab (antibody, chains of the INN, looked up, V domains shown)
VH: B2 VH
VL: B2 VL
modifications: murine chimeric IgG2a/kappa
As usually defined, the IC50 is the concentration that gives 50% inhibition. B3: the EC50 was found to be 0.3 nM at fibrillar Aβ1-42, 5.9 nM on Aβ1-40 and 300 nM with monomeric Aβ1-40. This molecule returned an IC50 at Aβ1-40 monomer of 330 nM. In the data set on monomeric Aβ1-40-biotin (setting [1]), the “Association rate, ka” value was 660000 M⁻¹ s⁻¹. The “Dissociation rate, kd” value in the data set with monomeric Aβ1-40-biotin (setting [1]) stood at 0.015 s⁻¹. Moreover, the Kd was 23 nM on monomeric Aβ1-40-biotin (Fab binding to Aβ1-40-biotin, ^chaducanumab from steady state fit, read-out: Equilibrium affinity, KD); 97 nM at Aβ1-16 peptide; around 1000 nM at soluble Aβ1-28 (intact antibody captured at 100-600 RU on CM5 mouse antibody capture chip, 1:1 binding model, read-out: affinity of soluble Aβ1-28 for antibody). Also, the “affinity for dimeric Aβ1-15 MAP” value in the data set with dimeric Aβ1-15 MAP is reported as “sub-nanomolar”. Further, the “affinity for tetrameric Aβ1-15 MAP” value with tetrameric Aβ1-15 MAP is listed as “sub-nanomolar”. Besides, the “labeling density of ^chaducanumab compared to the named antibody” value in the data set on Aβ1-40 fibrils was 3.6 fold. The “labeling density of chaducanumab compared to the named antibody” value in the data set with Aβ1-42 fibrils is on record as 3.1 fold. In addition, the “decrease in affinity using soluble Aβ versus immobilized Aβ1-40” value in the data set on soluble Aβ1-28 (comparison with Table 2) is above 50 fold. Besides, the “decrease in association rate using soluble Aβ” value in the data set on soluble Aβ1-28 (comparison with immobilized Aβ1-40) is 20 fold.
